Drawing on US20090042250, this text covers activity (% chromosomes modified) for four sequences.

Holding throughout (test): cell_activity
Data set [1] has as its system ZFN 12176 (synthetic construct). As to conditions: pair 12172/12176 (3.0 with 12170), CHO K-1, Cel-1 assay 2 days post-transfection.
The test system of data set [2] is ZFN 12030 (synthetic construct). As to conditions: pair 12029/12030, CHO K-1, Cel-1 assay 2 days post-transfection.
Data set [3] has as its system ZFN 12170 (synthetic construct). As to conditions: pair 12170/12176, CHO K-1, Cel-1 assay 2 days post-transfection.
In data set [4] the test system is ZFN 12172 (synthetic construct). The following applies: pair 12172/12176, CHO K-1, Cel-1 assay 2 days post-transfection.
The subject of data set [5] is ZFN 12029 (synthetic construct). As to conditions: pair 12029/12030, CHO K-1, Cel-1 assay 2 days post-transfection.

In data set [1], “AAGAAGGGTCATCAG (double strand) [FUT8 exon 10 12176 half-site]” came in with an activity (% chromosomes modified) of 4.4.
In data set [2], “AAGGACACACTG (double strand) [FUT8 12030 half-site]” registered an activity (% chromosomes modified) of 3.3.
For the sequence “AAGGAGGCAAAGACAAAG (double strand) [FUT8 exon 10 12170/12172 half-site]”, the values for the activity (% chromosomes modified) in data set [3] and in data set [4] were 3 and 4.4, respectively.
Sequence “GTCTCGGATGCT (double strand) [FUT8 12029 half-site]” gave an activity (% chromosomes modified) in data set [5] of 3.3.
